From patent US20260125454A1 (SHANGHAI JUNSHI BIOSCIENCES, published 2026)
Bridges are numbered along the chain shown (N, C = ends). Where no end group is shown, it is not given here.

T1: Biotin-1-19 polypeptide (human, disulfide 2-7; not fully specified (N-terminus); printed as Biotin-Linker(G5)-ACDTATCVTHRLAGLLSRS; ends not checked; also: biotin, position not given here)
T1 construct: also called fragment CGRP (1-19); truncated (1-19) CGRP
T1 peptide: ACDTATCVTHRLAGLLSRS

T2: Biotin-huCGRPaSA (human, not fully specified; biotin (position not given))
T2 construct: exact construct ('aSA') not explained; also called Biotin CGRPaSA; full-length (1-37) CGRP
T2 peptide: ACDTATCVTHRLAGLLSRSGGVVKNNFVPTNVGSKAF


How the values were obtained:
Biotin-1-19 polypeptide = molecular target: T1, Biotin-1-19 polypeptide; assay: ELISA, transfection supernatant, biotin-CGRP(1-19) on streptavidin
Method: Streptavidin was diluted to 0.5 μg/mL by using PBS (Hyclone) and added into a plate at 100 μL/well. The plate was incubated in a thermostat incubator at 37° C. for 90 min and then washed. 2% BSA was added to the plate at 200 μL/well, and the plate was incubated in the thermostat incubator at 37° C. for 90 min and washed. Biotin-1-19 polypeptide was diluted to 2.0 μg/mL with 2% BSA and added into the plate at 100 μL/well, and the plate was incubated in the thermostat incubator at 37° C. for 60 min. The reference antibody (Lily) was diluted to 2500 ng/ml with a diluent (2% BSA) and then serially 4-fold diluted to 0.15 ng/ml. For chimeric antibodies, the stock solution was diluted. All the chimeric antibody solutions and the reference antibody solution were added into plates at 80 μL/well, and the plates were incubated in a thermostat incubator at 37° C. for 60 min and washed. An HRP-conjugated mouse anti-human antibody IgG4 (manufacturer: Southern Biotech, Cat. No. 9200-05; Fc specificity) was diluted 5000-fold with 2% BSA and added into the plates at 100 µL/well, and the plates were incubated in the thermostat incubator at 37° C. for 60 min and washed. 0.1 mg/mL chromogenic reagent TMB was carefully added at 100 μL/well to avoid bubbles, and the system was incubated at 37° C. for 10 min away from light for chromogenic reaction. Finally, a 2 M hydrochloric acid solution was added at 100 μL/well to stop the reaction while avoiding bubbles, and the plates were read on a microplate reader within 10 min (the detection wavelength was 450 nm; the reference wavelength was 620 nm).

Biotin-huCGRPaSA [1] = molecular target: T2, Biotin-huCGRPaSA; assay: ELISA, transfection supernatant, biotin-CGRP on streptavidin
Method: Streptavidin was diluted to 0.5 μg/mL by using PBS (Hyclone) and added into a plate at 100 μL/well. The plate was incubated in a thermostat incubator at 37° C. for 90 min and then washed. 2% BSA was added to the plate at 200 μL/well, and the plate was incubated in the thermostat incubator at 37° C. for 90 min and washed. Biotin-huCGRPaSA was diluted to 2.0 μg/mL with 2% BSA and added into the plate at 100 μL/well, and the plate was incubated in the thermostat incubator at 37° C. for 60 min. The reference antibody (47-RM) was diluted to 2500 ng/ml with a diluent (2% BSA) and serially 4-fold diluted to 0.15 ng/mL, and the chimeric antibodies were diluted with a cell supernatant stock solution. All the chimeric antibody solutions and the reference antibody solution were added into plates at 80 μL/well, and the plates were incubated in a thermostat incubator at 37° C. for 60 min and washed. An HRP-conjugated mouse anti-human antibody IgG4 (manufacturer: Southern Biotech, Cat. No. 9200-05; Fc specificity) was diluted 5000-fold with 2% BSA and added into the plates at 100 μL/well, and the plates were incubated in the thermostat incubator at 37° C. for 60 min and washed. 0.1 mg/mL chromogenic reagent TMB was carefully added at 100 μL/well to avoid bubbles, and the system was incubated at 37° C. for 10 min away from light for chromogenic reaction. Finally, a 2 M hydrochloric acid solution was added at 100 μL/well to stop the reaction while avoiding bubbles, and the plates were read on a microplate reader within 10 min (the detection wavelength was 450 nm; the reference wavelength was 620 nm).

CGRP antigen = assay: cell-based or functional assay
Biotin-huCGRPaSA [2] = molecular target: T2, Biotin-huCGRPaSA; assay: ELISA, purified antibody; relative to reference 47-RM-20190815
Method: Streptavidin was diluted to […] by using PBS (Hyclone) and added into a plate at 100 μL/well. The plate was incubated in a thermostat incubator at 37° C. for 90 min and then washed. 2% BSA was added to the plate at 200 μL/well, and the plate was incubated in the thermostat incubator at 37° C. for 90 min and washed. Biotin-huCGRPaSA was diluted to 2.0 μg/mL with 2% BSA and added into the plate at 100 μL/well, and the plate was incubated in the thermostat incubator at 37° C. for 60 min. The chimeric antibodies in Table 3 and reference antibody (47-RM-20190815) were diluted to 1000 ng/ml with a diluent (2% BSA) and serially 10-fold diluted to 1 ng/mL. All the chimeric antibody solutions and the reference antibody solution were added into plates at 100 μL/well, and the plates were incubated in a thermostat incubator at 37° C. for 60 min and washed. An HRP-conjugated mouse anti-human antibody IgG4 (manufacturer: Southern Biotech, Cat. No. 9200-05; Fc specificity) was diluted 5000-fold with 2% BSA and added into the plates at 100 μL/well, and the plates were incubated in the thermostat incubator at 37° C. for 60 min and washed. 0.1 mg/mL chromogenic reagent TMB was carefully added at 100 μL/well to avoid bubbles, and the system was incubated at 37° C. for 5 min away from light for chromogenic reaction. Finally, a 2 M hydrochloric acid solution was added at 100 μL/well to stop the reaction while avoiding bubbles, and the plates were read on a microplate reader within 10 min (the detection wavelength was 450 nm; the reference wavelength was 620 nm). EC₅₀ was fit by using a four-parameter logistic regression (4PL) model.

Binder | OD value (Biotin-1-19 polypeptide) [OD] | OD value (Biotin-huCGRPaSA [1]) [OD] | Relative binding activity (%) vs Ref(Teva) (CGRP antigen) [%] | Relative activity (%) (Biotin-huCGRPaSA [2])
C246 (antibody, V domains shown, 3C1-HC + 3E5-LC; chimeric, human constant regions) VH: EVQLQQSGPELVKPGASMKISCKASGYSFTGYTMNWVKQSHGNNLEWIGLINPYIGNTHYNQKFKDKATFTVDRSSSTAYMALLSLTSEDSAVYYCARELDSGFDYWGQGTTLTVSS VL: DIVLTQSPASLAVSLGQRATISCKASQNIDYDGYTYLNWYQQKPGQPPKVLIYSIFNLESGIPARFSGSGSGTDFTLNIHPVEEEDAATYYCQQSNEVPYTFGGGTKLEIK | 0.91 | – | – | –
C347 (antibody, V domains shown, 3H10-HC + 1A2-LC2; chimeric, human constant regions) VH: EVQLQQSGPELVQPGASVKISCKASGYTFTDYNMHWVKQSHGESLEWIGYIYPYNGHTVYNQKFRNKATMTVDSSSSTAYMDLRSLTSEDSAVYYCAKEGLGGYWGQGTTLTVSS VL: DIVLTQSPASLAVSLGQRATISCKASQNIDYDGYAYLNWYQQKPGQPPKVLIYSVFNLESGIPARFSGSGSGTDFTLNIHPVEEEDAATYYCQQSNEFPYTFGGGTKLEVK | – | 3.01 | 87.6 | 91.4
C253 (antibody, V domains shown, 3C1-HC + 3H10-LC2; chimeric, human constant regions) VH: EVQLQQSGPELVKPGASMKISCKASGYSFTGYTMNWVKQSHGNNLEWIGLINPYIGNTHYNQKFKDKATFTVDRSSSTAYMALLSLTSEDSAVYYCARELDSGFDYWGQGTTLTVSS VL: DIVLTQSPDSLAVSLGQRATISCKASQNIDYGGYSYMNWYQQKPGQPPKVLIYSVFNLESGIPARFSGSGSGTDFTLTIHPVEEEDAATYYCQQSNEAPYTFGGGTKLEIR | 2.94 | 2.46 | – | –
C235 (antibody, V domains shown, 3C1-HC + 1F5-LC1; chimeric, human constant regions) VH: EVQLQQSGPELVKPGASMKISCKASGYSFTGYTMNWVKQSHGNNLEWIGLINPYIGNTHYNQKFKDKATFTVDRSSSTAYMALLSLTSEDSAVYYCARELDSGFDYWGQGTTLTVSS VL: DIVLTQSPASLAVSLGQRATISCKASQNIDFDGYAYMNWYQHKPGQPPRVLIYSVFNLESGIPARFSGSGSGTDFTLNIHPVEEEDAATYYCQQSHEVPYTFGGGTNLEIK | 2.84 | – | – | –
